This is an account of results in paper PMC6819324.

This data set deals with T1, AdpAlin (Streptomyces lincolnensis NRRL 2936) (UniProt A0A1B1M9Y0).
T1 sequence: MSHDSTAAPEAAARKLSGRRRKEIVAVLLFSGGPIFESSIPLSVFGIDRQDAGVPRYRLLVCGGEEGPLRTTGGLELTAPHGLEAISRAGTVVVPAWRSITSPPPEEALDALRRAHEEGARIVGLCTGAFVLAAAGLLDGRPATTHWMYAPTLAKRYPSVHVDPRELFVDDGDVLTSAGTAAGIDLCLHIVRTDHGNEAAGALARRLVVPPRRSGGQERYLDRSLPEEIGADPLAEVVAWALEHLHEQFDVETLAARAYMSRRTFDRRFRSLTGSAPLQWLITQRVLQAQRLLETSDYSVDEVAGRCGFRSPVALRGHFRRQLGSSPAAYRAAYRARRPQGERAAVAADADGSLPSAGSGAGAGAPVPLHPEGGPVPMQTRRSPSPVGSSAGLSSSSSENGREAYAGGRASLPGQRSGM
Description: EMSA. To be noted: EMSA: 20 mM Tris-HCl pH 7.5, 5% glycerol, 0.1% BSA; 2.5 nM 5'-biotin probe; AdpAlin 0-6.4 uM (12.8 uM for probe-neg); 200-fold unlabeled competitor; salt and …. (A gel shift assay detects complexes by their altered migration in electrophoresis.)
“AGCCAGTGACGATAAGGGCCACACGTCGTAGACATCTGCGATCTTGTCACCGTAGAGCTTCGCGAAATCATGGTCGGACATTGAATTCTCTTTCCTCACCAGGCTCGGCGAGCGGCCGCAGGGAGACGGTGGCATGGGACGCGAGGGACAGTCGACACGGCAGCCGGTACCGGCGGTGTTCTTCGACCGGGACGGCGCTTATCGTCACTGGCT (double strand) [mlmbJp-A]”: the binding entry is reported as “no binding”.
Next, “AGCCAGTGACGATAAGTCGGACGAGGACGACGACAACCCCGCGGACGACCCGACAGGACTCGGCGAACGCCGCGTCTGCATCGGCACCGGCCCGCCCTCCGGATGCAGCGGAACCGGCGCACCGGCACCCGCCCCCGATCCGGCGGACGGCAAGGACCCGTCAGCGTCCTTATCGTCACTGGCT (double strand) [probe-neg]”: “no binding”; “AGCCAGTGACGATAAGCGAGACAAGCAATCGGCTTCACGCCCTGTCAAGCGGCAGCAGACGGCTTCCCGTAATTCCTGGAAGTTATCCGGGAGTCGGCGCGAACGGCCCTCGATATCCGGTGCATTACCTGGGAATAGGGAATAGGGAACCGGTAATCCGCGGTCGGGGCAAGCGTCTGGGTGCGTGGACTTATCGTCACTGGCT (double strand) [mlmbAp-A]”: “no binding”.
As for “AGCCAGTGACGATAAGGGTTCCCGTGGTGCTCCTCTGGTACGGCACCTCGCTCGCCGGCGCCGCCGGCACCGCGCTCGGACTGGCCGCCGTCACCGCCGTCTGCCGTATCCTCCTGCGCCAGTCGGAGCGCGGTGCGGCACGGCTACTGGCCGAAGAACGGGCCCCCCATCGCGGCCACCGCCACCGGGCCGGAACGGGGACACACAGGGGTGGGCGCTTATCGTCACTGGCT (double strand) [adpAp-B-2]”, the binding entry is reported as “binds”.
Next, “AGCCAGTGACGATAAGCGTGTCTGCATTCCACCATCCGGGCAGGCCATGGGCTCCGCATCGAGGTTCCCGAGCCTATCGGGACGCCTCCCCCCAACAGGGGTCGGGTGGCCCGATGTTGTCTTATTTTATTGAGTTCTGAGGGAGCCTTATCGTCACTGGCT (double strand) [bldAp-A]”: “binds”.
Next, “AGCCAGTGACGATAAGTGATCCGTACTTGATACATTGGCCGTTACATGTATCGGAGTTCCGAGGGGGGGCAATGATGCTGGTTCCGCCAAGCCATTCATGAGCTGCTCGCCTGCGCCGCCCTTCGTGGCGGTGGCGCGACATCGATGAGCGTGGTGGGCGCCGAACAACGGGGGTGAATCGCTGCTTCTTATCGTCACTGGCT (double strand) [lmbUp-A]”: “binds”; “AGCCAGTGACGATAAGGGCGTAGACGGACACGTGGTAGCGGCTGTCCGGGCGGTAGGCGGCACCGTCGAAGTCGGCGTGGCGGCTGCGGAGTTCGAAGCCCGCGAAGCGGGCCATCAGGTCCAGCTCCGTGGGGTGCTTATCGTCACTGGCT (double strand) [lmbKp-B]”: “binds”; “AGCCAGTGACGATAAGCGAGACAAGCAATCGGCTTCACGCCCTGTCAAGCGGCAGCAGACGGCTTCCCGTAATTCCTGGAAGTTATCCGGGAGTCGGCGCGAACGTGCCGCCACGGCCCTCGATATCCGGTGCATTACCTGGGAATAGGGAATAGGGAACCGGTAATCCGCGGTCGGGGCAAGCGTCTGGGTGCGTGGACTTATCGTCACTGGCT (double strand) [lmbAp-A]”: “binds”.
Next, “AGCCAGTGACGATAAGCGACCACCTGGGTCTCGCCCTGACCGTAGATCTTCGACAGATCCGTGGCACGCGCCGCCACTGCGGTGGTCCGGCCGACGATGGGTGTGGTGGTCACGAGAGGGCACTCCTGGGAACGACGACTGGGGGAATACCTCCATCGTCGCCGCCGCGGAGCGCCGTGTAGTCAGCCGCTGTTCCCTTATCGTCACTGGCT (double strand) [bldAp-N]”: “no binding”; “AGCCAGTGACGATAAGGCGTTTACCTAGAACAAATCCGGGGCAAGCTCGCTCAGCTGTCGCCATGGGCGCCCTGACGCCACTGCGGCCCACGGATCGCCCCGTCAGCAAACTGGCCGAATGCCAACGGCATACGGCCAGTTCCTGACGCGGGCCACGGGGTTCACTCCGCGGACCACGCGTGCGGCGGCCGCCTCACTTATCCCGATGAGGCCACGCGTCGTCCGCCTCCGCGATCTCCTCCAGGGTTCCGTCCTTATCGTCACTGGCT (double strand) [lmbUp-C]”: “binds”.
On to “AGCCAGTGACGATAAGTCTACTGTGTCGCGTGATGCCGGAGTGACCAGTTCGTCATCCGGCAGATTGTCGACTTGGCAACTTGGCGTGAAGCATTCGATCACGAAGCGTTGCACTCGTGGGGCGTGCAGGGAAGTGCGCCTTGTCGCAGTGGCCAATCCACGTAGGGTGCGCTTATCGTCACTGGCT (double strand) [adpAp-A]”, for which the binding entry was “binds”.
As to “AGCCAGTGACGATAAGCGGGGACACACAGGGGTGGGCGGCACGGTGGGGGAAATACACCGGTCGGCTGACCGGTTTCCGCGCACGCGCCCGACTCTTTTCAGCCAACTTCCGACCACCGGGCATCCTTGTGTCCAACCACCCCCCAACCCCCGTTTGACCTGCACGGAAAGGGTCCCCACTTATCGTCACTGGCT (double strand) [adpAp-B-1]”, the binding entry is listed as “no binding”.
Consider “AGCCAGTGACGATAAGCTATAGGCTTCGCGGGCTTCGAACTCCGCAGCCGCCACGCCGACTTCGACGGTGCCGCCTACCGCCCGGACAGCCGCTACCACGTGTCCGTCTACGCCCGGGCGCACGGTGACTAGGGCGCGACGGCTCGCCGCCGCCGCGTTCCGGGCCTTATCGTCACTGGCT (double strand) [mlmbKp-B]”, for which the binding entry is on record as “no binding”.
On to “AGCCAGTGACGATAAGGGCCACACGTCGTAGACATCTGCGATCTTGTCACCGTAGAGCTTCGCGAAATCATGGTCGGACATTGAATTCTCTTTCCTCACCAGGACGTTGGCCACTCGGCGAGCGGCCGCAGGGAGACGGTGGCATGGGACGCGAGGGACAGTCGACACGGCAGCCGGTACCGGCGGTGTTCTTCGACCGGGACGGCGCTTATCGTCACTGGCT (double strand) [lmbJp-A]”, for which the binding result is “binds”.
